# Experimental data: article PMC8509414, “A Novel GUCA1A Variant Associated with Cone Dystrophy Alters cGMP Signaling in Photoreceptors by Strongly Interacting with and Hyperactivating Retinal Guanylate Cyclase” (International Journal of Molecular Sciences, 2021)
# B1: N104H-GCAP1 (guanylate cyclase-activating protein 1, variant p.Asn104His, in the E6S background) (natural protein, human, UniProt P43080 1-201, looked up)
# chain: MGNVMSGKSVEELSSTECHQWYKKFMTECPSGQLTLYEFRQFFGLKNLSPSASQYVEQMFETFDFNKDGYIDFMEYVAALSLVLKGKVEQKLRWYFKLYDVDGHGCIDRDELLTIIQAIRAINPCSDTTMTAEEFTDTVFSKIDVNGDGELSLEEFIEGVQKDQMLLDTLTRSLDLTRIVRRLQNGEQDEEGADEAAEAAG
# modifications: N-terminal myristoylation (by co-expressed S. cerevisiae N-myristoyl transferase, yNMT)
# notes: cDNA of GCAP1-E6S in pET-11a (NdeI/NheI); c.310A>C p.(Asn104His) introduced by site-directed mutagenesis; N104H is a patient variant; E6S was put in by the authors to give the consensus for myristoylation by yNMT; No tag is mentioned; Myristoylation on Gly2 implies loss of the initiator Met (surmise); also called N104H-GCAP1 variant; p.N104H; source: E. coli BL21 co-transformed with pBB131-yNMT
# Columns and labels:
# [1] = biological target: T1, human recombinant ROS-GC1 (retinal guanylate cyclase 1) (human, UniProt Q02846 52-1103); test: cell-based or functional assay
# T1 sequence (looked up): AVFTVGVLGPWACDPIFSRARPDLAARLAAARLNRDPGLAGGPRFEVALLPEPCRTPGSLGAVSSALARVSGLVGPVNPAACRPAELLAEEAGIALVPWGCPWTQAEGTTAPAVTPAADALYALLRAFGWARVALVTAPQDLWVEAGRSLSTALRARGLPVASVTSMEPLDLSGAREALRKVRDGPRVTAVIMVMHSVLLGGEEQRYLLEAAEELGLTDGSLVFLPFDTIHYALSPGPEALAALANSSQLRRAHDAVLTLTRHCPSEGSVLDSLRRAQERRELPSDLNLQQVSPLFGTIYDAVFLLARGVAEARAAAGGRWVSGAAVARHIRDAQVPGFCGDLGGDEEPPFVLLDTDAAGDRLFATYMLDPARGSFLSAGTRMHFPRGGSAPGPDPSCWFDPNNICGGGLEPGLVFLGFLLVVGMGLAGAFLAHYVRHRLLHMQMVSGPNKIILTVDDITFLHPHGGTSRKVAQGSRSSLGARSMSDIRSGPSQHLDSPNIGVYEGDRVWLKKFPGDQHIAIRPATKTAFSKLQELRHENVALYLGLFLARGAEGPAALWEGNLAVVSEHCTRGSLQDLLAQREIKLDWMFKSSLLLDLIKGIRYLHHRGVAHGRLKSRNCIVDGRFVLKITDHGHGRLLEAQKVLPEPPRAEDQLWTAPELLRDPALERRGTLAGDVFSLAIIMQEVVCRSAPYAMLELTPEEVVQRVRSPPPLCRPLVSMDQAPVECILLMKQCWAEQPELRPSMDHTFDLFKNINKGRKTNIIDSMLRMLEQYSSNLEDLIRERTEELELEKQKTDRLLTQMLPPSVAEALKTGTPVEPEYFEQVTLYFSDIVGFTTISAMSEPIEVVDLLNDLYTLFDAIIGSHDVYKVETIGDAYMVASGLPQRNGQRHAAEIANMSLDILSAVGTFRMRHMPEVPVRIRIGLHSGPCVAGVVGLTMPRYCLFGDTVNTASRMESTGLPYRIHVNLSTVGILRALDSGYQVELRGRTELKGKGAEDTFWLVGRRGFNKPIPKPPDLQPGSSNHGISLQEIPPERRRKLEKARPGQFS
# [2] = biological target: the molecule itself; test: SEC; analytical gel filtration, Superose 12 10/300, 20 mM Tris-HCl pH 7.5, 150 mM KCl, 1 mM DTT, 500 µM EGTA + 1 mM Mg2+ or 1 mM Mg2+ + 1 mM Ca2+, room temperature; protein 20 µM (methods) or ~45 µM; apparent MW from a calibration curve
binder,measurement,setting,value
B1,"GC activity (cGMP synthesis, HPLC) of HEK293 membranes with human GC as a function of N104H-GCAP1 concentration (0-10 µM) at <19 nM free Ca2+; EC50 = [N104H] at which GC activity is half-maximal",[1],1600 nM
same,stoichiometry N,[2],2
